One data set addresses GAL4-RpBphP1. Briefly: cell-based or functional assay.
Data set [1] concerns the molecule itself. Briefly: analytical SEC of DrBphP alone, Superdex 200 Increase 10/300 GL.
Data set [2] deals with the molecule itself. Briefly: analytical SEC of LDB-3 alone at different injected amounts, Superdex 200 Increase 10/300 GL.
Data set [3] deals with the molecule itself. Briefly: analytical SEC of LDB-14 alone at different injected amounts, Superdex 200 Increase 10/300 GL.

In the data set with GAL4-RpBphP1, NLS-PpsR2-p65 had a light-induced luciferase expression over dark expression (mammalian two-hybrid, HEK293T, 775-nm light) of 2.95 fold.

B1: DrBphP-His, light form (photosensory module of Deinococcus radiodurans bacteriophytochrome, biliverdin-bound, after 654-nm illumination) (other)
chain: MSRDPLPFFPPLYLGGPEITTENCEREPIHIPGSIQPHGALLTADGHSGEVLQMSLNAATFLGQEPTVLRGQTLAALLPEQWPALQAALPPGCPDALQYRATLDWPAAGHLSLTVHRVGELLILEFEPTEAWDSTGPHALRNAMFALESAPNLRALAEVATQTVRELTGFDRVMLYKFAPDATGEVIAEARREGLHAFLGHRFPASDIPAQARALYTRHLLRLTADTRAAAVPLDPVLNPQTNAPTPLGGAVLRATSPMHMQYLRNMGVGSSLSVSVVVGGQLWGLIACHHQTPYVLPPDLRTTLEYLGRLLSLQVQVKEAADVAAFRQSLREHHARVALAAAHSLSPHDTLSDPALDLLGLMRAGGLILRFEGRWQTLGEVPPAPAVDALLAWLETQPGALVQTDALGQLWPAGADLAPSAAGLLAISVGEGWSECLVWLRPELRLEVAWGGATPDQAKDDLGPRHSFDTYLEEKRGYAEPWHPGEIEEAQDLRDTLTGAL
modifications: biliverdin chromophore bound
notes: Same polypeptide as m2; differs only in the photoconverted state (654-nm light); Used in SEC, ITC, BLI and photoconversion assays; also called DrBphP light form
On to B1, for which, in data set [1], the binding result is reported as “binds”.

B2: DrBphP-His, dark form (photosensory module of Deinococcus radiodurans bacteriophytochrome, biliverdin-bound, after 775-nm illumination) (other)
chain: MSRDPLPFFPPLYLGGPEITTENCEREPIHIPGSIQPHGALLTADGHSGEVLQMSLNAATFLGQEPTVLRGQTLAALLPEQWPALQAALPPGCPDALQYRATLDWPAAGHLSLTVHRVGELLILEFEPTEAWDSTGPHALRNAMFALESAPNLRALAEVATQTVRELTGFDRVMLYKFAPDATGEVIAEARREGLHAFLGHRFPASDIPAQARALYTRHLLRLTADTRAAAVPLDPVLNPQTNAPTPLGGAVLRATSPMHMQYLRNMGVGSSLSVSVVVGGQLWGLIACHHQTPYVLPPDLRTTLEYLGRLLSLQVQVKEAADVAAFRQSLREHHARVALAAAHSLSPHDTLSDPALDLLGLMRAGGLILRFEGRWQTLGEVPPAPAVDALLAWLETQPGALVQTDALGQLWPAGADLAPSAAGLLAISVGEGWSECLVWLRPELRLEVAWGGATPDQAKDDLGPRHSFDTYLEEKRGYAEPWHPGEIEEAQDLRDTLTGAL
modifications: biliverdin chromophore bound
notes: Same polypeptide as m1; differs only in the photoconverted state (775-nm light); also called DrBphP dark form
B2: in data set [1], the binding result is on record as “binds”.

B3: LDB-3-His (VHH, not shown: small tags and cut ends)
VHH: EVQLQASGGGFVQPGGSLRLSCAASGFTWDHYIMGWFRQAPGKEREFVSAISENGDAWNYYADSVKGRFTISRDNSKNTVYLQMNSLRAEDTATYYCAIGFDVPSGRSWQGSHFWMYWGQGTQVTVSS
notes: Synthetic nanobody, expressed in E. coli WK6; used in SEC, ITC and photoconversion assays; SEC: mixture of monomer and dimer
Turning to B3, the binding result in data set [2] is recorded as “binds”.

B4: LDB-14-His (VHH, not shown: small tags and cut ends)
VHH: EVQLQASGGGFVQPGGSLRLSCAASGTTSRWESMGWFRQAPGKEREFVSAISWQNNSVPYYADSVKGRFTISRDNSKNTVYLQMNSLRAEDTATYYCAAQHNFLGHRYWGQGTQVTVSS
notes: Synthetic nanobody, expressed in E. coli WK6; used in SEC, ITC and photoconversion assays; SEC: mainly monomer
Take B4: the binding result in data set [3] is “binds”.
